Assays:
[1] = molecular target: murine VCAM-1 (vascular endothelial adhesion molecule-1) (murine) (UniProt P29533); test: cell-based or functional assay
[2] = molecular target: murine VCAM-1 (vascular endothelial adhesion molecule-1) (murine) (UniProt P29533); test: bEnd.3 cells, unstimulated against IL-1α-stimulated
[3] = molecular target: murine VCAM-1 (vascular endothelial adhesion molecule-1) (murine) (UniProt P29533); test: IL-1α-activated bEnd.3 cells treated with anti-VCAM-1•tTF, bound coaguligand detected with 125I-labeled 10H10

Chain of UniProt P29533 (P29533 25-739): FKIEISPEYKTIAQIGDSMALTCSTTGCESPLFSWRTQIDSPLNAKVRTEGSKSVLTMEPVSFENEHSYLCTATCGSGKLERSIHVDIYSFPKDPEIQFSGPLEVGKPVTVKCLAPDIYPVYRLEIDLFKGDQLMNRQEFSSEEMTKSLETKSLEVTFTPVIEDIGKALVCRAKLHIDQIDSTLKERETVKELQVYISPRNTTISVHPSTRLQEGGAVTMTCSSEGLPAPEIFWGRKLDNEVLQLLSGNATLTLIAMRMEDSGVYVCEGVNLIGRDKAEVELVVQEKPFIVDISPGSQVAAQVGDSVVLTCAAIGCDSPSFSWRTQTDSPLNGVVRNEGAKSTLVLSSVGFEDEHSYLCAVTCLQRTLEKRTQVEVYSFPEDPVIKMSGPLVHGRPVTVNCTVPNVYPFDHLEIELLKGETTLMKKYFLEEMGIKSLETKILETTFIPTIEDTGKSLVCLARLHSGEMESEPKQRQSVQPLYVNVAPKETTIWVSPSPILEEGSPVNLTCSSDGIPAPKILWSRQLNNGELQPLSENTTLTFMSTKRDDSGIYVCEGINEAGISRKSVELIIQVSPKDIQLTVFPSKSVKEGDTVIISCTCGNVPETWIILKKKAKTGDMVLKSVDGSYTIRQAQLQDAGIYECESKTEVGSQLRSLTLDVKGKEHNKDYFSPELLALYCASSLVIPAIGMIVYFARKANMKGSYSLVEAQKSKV

Generation of factor Xa (chromogenic assay, S-2765), intact IL-1α-stimulated bEnd.3 cells (ng per 10^4 cells per 60 min) [1]: 3.17 | Generation of factor Xa (chromogenic assay, S-2765), intact unstimulated bEnd.3 cells (ng per 10^4 cells per 60 min) [1]: 1.64 | Generation of factor Xa (chromogenic assay, S-2765), saponin-permeabilized IL-1α-stimulated bEnd.3 cells (ng per 10^4 cells per 60 min) [1]: 98.8 | Generation of factor Xa (chromogenic assay, S-2765), saponin-permeabilized unstimulated bEnd.3 cells (ng per 10^4 cells per 60 min) [1]: 49.2 | factor Xa produced by permeabilized IL-1α-stimulated bEnd.3 cells preincubated with coaguligand, no Annexin V ([1]; scale: ng of factor Xa per 10,000 cells per 60 min): 95 | amount bound to unstimulated cells against stimulated cells [2]: 50 % lower | amount of anti-TF antibody bound at saturation [3]: 8.7 fmol | molecules of anti-TF antibody bound per cell at saturation (molecules per cell) [3]: 540000
Substance: anti-VCAM-1•tTF coaguligand (MK2.7 anti-VCAM-1 IgG covalently linked through SMPT to truncated human tissue factor) (from UniProt P13726 33-251)
